Measurements: article PMC6728052 (PLoS Computational Biology, 2019)

Legend:
[1] = target: hen egg-white lysozyme (Gallus gallus, UniProt P00698); experiment: SPR
[2] = target: human Vascular-Endothelial Growth Factor (VEGF) (Homo sapiens, UniProt P15692-4); experiment: SPR

Chain of hen egg-white lysozyme (P00698 19-147): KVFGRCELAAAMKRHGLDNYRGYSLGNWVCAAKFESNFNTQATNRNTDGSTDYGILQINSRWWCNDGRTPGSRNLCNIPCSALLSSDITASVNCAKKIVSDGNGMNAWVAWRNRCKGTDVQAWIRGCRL

B1: D44.1^des, Fab (Fab, V domains shown)
VH: QVQLQESGAEVMKPGASVKISCKATGYTFSTYWIEWMKQRPGGGLEYIGEILPGSGSTYYNEKFKGKATFTADTSSNTAYMQLSSLTSEDSAVYYCARGDGYYKYWGQGTTLTVSS
VL: DIELTQSPATLSVTPGDSVSLSCRASQSISNNLHWYQQKSHEPPRLLIKYVSQSVSGIPSRFSGSGSGTDFTLSINSVETEDFGMYFCGQSNSWPRTFGGGTKLEIK
Binder B1 has a Kd [1] of 15 nM, a koff [1] of 0.00079 s⁻¹ and a kon [1] of 53000 M⁻¹ s⁻¹.

B2: G6^des1, Fab (Fab, V domains shown)
VH: EVQLVESGGGLVQPGGSLRLSCAASGFTISDYWIHWVRQAPGKGLEWVAGITPAGGYTHYADSVKGRFTISADTSKNTAYLQMNSLRAEDTAVYFCARFVFFLPYAMDYWGQGTLVTVSS
VL: DIQMTQSPSSLSASVGDRVTITCRASQDVSTAVAWYQQKPGKPPKLLIFSASFLFSGVPSRFSGSGSGTDFTLTISSLQPEDFATYYCLQSYTVTPTFGPGTKVEIK
With B2 the kon [2] was 327000 M⁻¹ s⁻¹.

B3: G6^des13, Fab (Fab, V domains shown)
VH: EVQLVESGGGLVQPGGSLRLSCAASGFTISDYWIHWVRQAPGKGLEWVAGITPAGGYTHYADSVKGRFTISADTSKNTAYLQMNSLRAEDTAVYFCARFVFFLPYAMDYWGQGTLVTVSS
VL: DIQMTQSPSSLSASVGDRVTITCRASQDVSTAVAWYQQKPGKPPKLLIYSASFLYSGVPSRFSGSGSGTDFTLTISSLQPEDFATYYCLQSYTDTPTFGQGTKVEIK
Work on B3 yielded a Kd [2] of 0.06 nM, a koff [2] of 3.2e-05 s⁻¹ and a kon [2] of 530000 M⁻¹ s⁻¹.
